Assay results as given in article PMC8079763 (2021).

T1: GST tagged ecto-basigin (recombinant mouse basigin) (mouse (C57BL/6J), UniProt P18572 22-325)
T1 chain: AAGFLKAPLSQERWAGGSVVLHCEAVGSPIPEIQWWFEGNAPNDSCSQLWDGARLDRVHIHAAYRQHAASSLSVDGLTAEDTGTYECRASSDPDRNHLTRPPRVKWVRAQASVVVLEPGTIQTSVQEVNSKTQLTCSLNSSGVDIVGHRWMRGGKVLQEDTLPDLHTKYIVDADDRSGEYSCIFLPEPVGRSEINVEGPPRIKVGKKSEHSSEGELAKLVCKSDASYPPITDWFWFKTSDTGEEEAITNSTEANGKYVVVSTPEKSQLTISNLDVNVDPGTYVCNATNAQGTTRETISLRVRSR

B1: recombinant PyEBL R2, the N-terminal Cys-rich Duffy binding-like region (E113-G437) (domain or fragment)
chain: EKNGNVNYKDYFDKYQVNECKEKNKNEIHAWICDNEKQNCIPSRRINLCTKRLEIIPDTIKIPDNKTKELLMDYFKQFIYKDAAREGELLLNKYDDKNNNEYCNDMINSFGDYKNIVEGTGLKNVANESLLELKIQNIFGTDDNAKRNRKTWWKNHEHIVWKAMVLGKNFNETSNYKNVCTNYKLEDYHSQIERWTREWIQEFSVQYFKEANKINNKCTKKSNISTESICINNECKNACNTYEAWISVNKSKWDTLLQRFSQFNKSYFSEETCRDKAYNSLMIEFKEAYEANFENVINLDDDHYTGLCVCSSVKPSNTPINNNLG
B2: recombinant PyEBL R1-2 (amino acid V28-G437) (domain or fragment)
chain: VNLLKRTYESFQSFPLKNNSGNRILYELKESLYNIENGETWGDLVSKDNEIFGGKDHILSENYTSDSVNSKKESNFLETGKISLVEKNGNVNYKDYFDKYQVNECKEKNKNEIHAWICDNEKQNCIPSRRINLCTKRLEIIPDTIKIPDNKTKELLMDYFKQFIYKDAAREGELLLNKYDDKNNNEYCNDMINSFGDYKNIVEGTGLKNVANESLLELKIQNIFGTDDNAKRNRKTWWKNHEHIVWKAMVLGKNFNETSNYKNVCTNYKLEDYHSQIERWTREWIQEFSVQYFKEANKINNKCTKKSNISTESICINNECKNACNTYEAWISVNKSKWDTLLQRFSQFNKSYFSEETCRDKAYNSLMIEFKEAYEANFENVINLDDDHYTGLCVCSSVKPSNTPINNNLG
B3: recombinant PyEBL ectodomain spanning region 1 to region 6 (PyEBL R1-6; amino acids V28-N788) (domain or fragment)
chain: VNLLKRTYESFQSFPLKNNSGNRILYELKESLYNIENGETWGDLVSKDNEIFGGKDHILSENYTSDSVNSKKESNFLETGKISLVEKNGNVNYKDYFDKYQVNECKEKNKNEIHAWICDNEKQNCIPSRRINLCTKRLEIIPDTIKIPDNKTKELLMDYFKQFIYKDAAREGELLLNKYDDKNNNEYCNDMINSFGDYKNIVEGTGLKNVANESLLELKIQNIFGTDDNAKRNRKTWWKNHEHIVWKAMVLGKNFNETSNYKNVCTNYKLEDYHSQIERWTREWIQEFSVQYFKEANKINNKCTKKSNISTESICINNECKNACNTYEAWISVNKSKWDTLLQRFSQFNKSYFSEETCRDKAYNSLMIEFKEAYEANFENVINLDDDHYTGLCVCSSVKPSNTPINNNLGYKQTLETQNPTDASQNTLFPPFSTGTETDLFKEDDDDNGGFDLLSYNNADAQNLRNSTPTDQVGVNNEQNKLNQNAESNNKYELQIMGNHANSDNTYHNIIIPSQENNIYTSTPESVTINPTSTSNTNENQTLTPNSTLTPTLTSNSNPTQIPTQPQPQFPIPPQPQFPIPPETQFPIPPETQIPTPTLNPNATNKGVKEHHFNTNGIENGNTMKDQMNIPPIKFNIDPKHDNTINGGFSRINNDNDSENANKLGIDEYEHRDIKKSRENIIMLANENVCNGNPGLKYCESINNKYFHGTCSKSQTQNLCCSISNYCIKFFNINSKKYYDCMNEEFMAPDYNCFQKESYSN

Biological target: T1, GST tagged ecto-basigin (recombinant …)
Assay: SPR

Q: B1 was tested. Which koff did it give?
A: The koff was 0.00104 s⁻¹.

Q: Which koff does the source give for B2 here?
A: Its koff is 0.00713 s⁻¹.

Q: B3 was tested. Which koff did it give?
A: The koff was 0.00106 s⁻¹.

biological target: GST tagged ecto-basigin (recombinant mouse basigin) (mouse (C57BL/6J)) (UniProt P18572); assay: SPR; Biacore X100; recombinant mouse basigin (GST tagged) immobilised on CM5 chip by amine coupling; PyEBL regions as analytes; HBS-EP+ (10 mM HEPES pH 7.4, 150 mM NaCl, 3 mM EDTA, 0.05% P20); single-cycle kinetics, 1:1 binding model

Q: For “recombinant PyEBL C351Y (domain or fragment)”, which Kd is on record?
A: Its Kd is 0.026 µM.

Q: For “recombinant PyEBL R1-2 (amino acid V28-G437) (domain or fragment)”, which Kd is on record?
A: The Kd was 0.016 µM.

Q: How did the Kd turn out when “recombinant PyEBL ectodomain spanning region 1 to region 6 (PyEBL R1-6; amino acids V28-N788) (domain or fragment)” was run?
A: The Kd was 0.033 µM.

Q: For “recombinant PyEBL R2, the N-terminal Cys-rich Duffy binding-like region (E113-G437) (domain or fragment)”, which Kd is on record?
A: The Kd was 0.034 µM.
